From patent US20100143440A1, “UL97 INHIBITORS FOR TREATMENT OF PROLIFERATIVE DISORDERS” (The UAB Research Foundation, priority 2007, published 2010)
Where a chain is given by its changes, count along the chain named. Numbers in names are those of the source. Like-named read-outs stand apart in the source and are kept apart here.

Experiments:
GS strain of HHV-6A = assay: Efficacy against HHV-6A in HSB-2 cells with reduced serum; assay type: cell-based; conditions: for EC50: HSB2, HHV-6A in HSB-2 cells, read-out: EC50
Procedure: The activity of MBV was evaluated against the GS strain of HHV-6A in HSB-2 cells with reduced serum to slow the growth of lymphocytes.

[1] = biological target: RB tumor suppressor (retinoblastoma protein), endogenous in infected human foreskin fibroblast (HFF) cells (UniProt P06400)
[2] = biological target: T1, RB tumor suppressor (retinoblastoma protein), endogenous in infected human foreskin fibroblast (HFF) cells, P06400
T1 chain: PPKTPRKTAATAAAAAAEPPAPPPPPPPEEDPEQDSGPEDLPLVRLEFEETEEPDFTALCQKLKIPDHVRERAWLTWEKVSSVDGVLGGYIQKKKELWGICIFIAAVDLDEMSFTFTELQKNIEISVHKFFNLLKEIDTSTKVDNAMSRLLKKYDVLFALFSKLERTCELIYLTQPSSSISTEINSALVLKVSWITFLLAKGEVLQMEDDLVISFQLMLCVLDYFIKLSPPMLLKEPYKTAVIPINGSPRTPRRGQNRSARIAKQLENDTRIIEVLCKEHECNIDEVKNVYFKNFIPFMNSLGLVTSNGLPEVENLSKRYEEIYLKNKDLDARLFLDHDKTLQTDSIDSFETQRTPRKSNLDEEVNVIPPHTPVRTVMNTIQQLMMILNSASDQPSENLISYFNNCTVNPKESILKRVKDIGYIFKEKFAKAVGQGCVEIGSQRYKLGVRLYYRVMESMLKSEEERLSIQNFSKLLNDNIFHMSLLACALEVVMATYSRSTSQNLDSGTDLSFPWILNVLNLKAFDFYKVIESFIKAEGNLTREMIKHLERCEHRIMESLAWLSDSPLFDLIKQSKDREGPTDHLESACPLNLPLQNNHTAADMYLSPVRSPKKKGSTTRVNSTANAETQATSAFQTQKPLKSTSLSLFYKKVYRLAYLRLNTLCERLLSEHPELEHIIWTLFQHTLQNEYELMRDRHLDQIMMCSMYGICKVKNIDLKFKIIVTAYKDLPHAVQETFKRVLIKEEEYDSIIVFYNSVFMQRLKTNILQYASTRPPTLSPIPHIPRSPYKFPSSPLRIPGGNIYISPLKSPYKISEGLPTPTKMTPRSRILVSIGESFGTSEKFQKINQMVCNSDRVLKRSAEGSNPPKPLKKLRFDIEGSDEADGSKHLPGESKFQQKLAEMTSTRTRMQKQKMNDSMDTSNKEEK

[3] = biological target: T2, epitope tagged (V5) UL89 fusion protein (negative control) (UniProt P16732 1-674); assay: pull-down of recombinant Rb by V5-immunoprecipitated protein on Protein A sepharose beads, immunoblot for Rb
T2 construct: Negative control in the Rb pull-down; also called pUL89
T2 sequence: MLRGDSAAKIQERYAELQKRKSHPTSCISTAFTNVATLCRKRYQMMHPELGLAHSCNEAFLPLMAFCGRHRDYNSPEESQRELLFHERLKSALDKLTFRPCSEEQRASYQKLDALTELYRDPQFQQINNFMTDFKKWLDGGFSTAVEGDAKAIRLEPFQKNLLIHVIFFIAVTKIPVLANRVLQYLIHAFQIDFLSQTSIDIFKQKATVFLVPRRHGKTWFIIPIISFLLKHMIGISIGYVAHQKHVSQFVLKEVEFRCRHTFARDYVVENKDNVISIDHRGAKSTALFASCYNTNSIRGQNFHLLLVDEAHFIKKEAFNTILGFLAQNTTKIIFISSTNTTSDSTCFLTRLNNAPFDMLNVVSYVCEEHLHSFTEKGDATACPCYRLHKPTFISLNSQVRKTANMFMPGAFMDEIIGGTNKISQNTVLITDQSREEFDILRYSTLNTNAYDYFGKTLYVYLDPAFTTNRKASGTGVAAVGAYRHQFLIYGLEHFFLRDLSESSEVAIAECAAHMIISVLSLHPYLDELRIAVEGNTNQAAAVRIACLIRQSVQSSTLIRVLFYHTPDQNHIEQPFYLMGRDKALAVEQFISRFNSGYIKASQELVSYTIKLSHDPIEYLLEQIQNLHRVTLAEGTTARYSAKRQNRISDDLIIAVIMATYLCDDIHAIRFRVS

[4] = biological target: T3, epitope tagged (V5) UL104 fusion protein (negative control) (UniProt P16735 1-697); assay: as above
T3 construct: Negative control in the Rb pull-down; also called pUL104
T3 sequence: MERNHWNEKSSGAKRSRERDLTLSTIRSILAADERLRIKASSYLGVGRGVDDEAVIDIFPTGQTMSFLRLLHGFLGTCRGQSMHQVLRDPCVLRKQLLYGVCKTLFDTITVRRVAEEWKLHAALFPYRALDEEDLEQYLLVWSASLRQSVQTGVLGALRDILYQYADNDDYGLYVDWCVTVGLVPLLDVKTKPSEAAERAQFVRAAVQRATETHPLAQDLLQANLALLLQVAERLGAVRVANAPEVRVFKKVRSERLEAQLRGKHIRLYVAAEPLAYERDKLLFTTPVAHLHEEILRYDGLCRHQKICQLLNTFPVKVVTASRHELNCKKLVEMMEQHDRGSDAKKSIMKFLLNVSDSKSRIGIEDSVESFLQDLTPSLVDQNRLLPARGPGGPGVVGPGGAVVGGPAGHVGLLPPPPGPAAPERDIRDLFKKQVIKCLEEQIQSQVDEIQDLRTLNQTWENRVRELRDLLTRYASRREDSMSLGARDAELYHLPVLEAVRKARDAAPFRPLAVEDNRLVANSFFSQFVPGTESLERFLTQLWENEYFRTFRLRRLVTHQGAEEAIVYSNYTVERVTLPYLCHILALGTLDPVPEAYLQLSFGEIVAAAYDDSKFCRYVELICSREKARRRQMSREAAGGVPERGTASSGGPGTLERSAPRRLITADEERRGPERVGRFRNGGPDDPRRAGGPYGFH

Molecule: Nc1ccn(C[C@@H](CO)OCP(=O)(O)O)c(=O)n1 [cidofovir]
- EC50 values under conditions of reduced serum (GS strain of HHV-6A; GS strain of HHV-6A, HSB-2 cells, reduced serum): unaffected
- EC50 (GS strain of HHV-6A; 2% FBS): 1100 nM
- EC50 (GS strain of HHV-6A; 5% FBS): 1200 nM
- EC50 (GS strain of HHV-6A; 10% FBS): 1400 nM

Molecule: pUL97 K355M of recombinant virus RC314
- RB stabilization, western blot of lysates 24 hours after infection [1]: This did not occur when cells were infected with the K355M mutant
- phosphorylation of RB on serine 780, western blot with specific antisera [1]: The phosphorylation of serine 780 was reduced in the K355M and C151G mutants relative to the wild-type virus and resembled levels seen in uninfected cells

B1: pUL97 of the wild-type virus HB5 (HCMV BAC strain) (protein)
chain: MSSALRSRARSASLGTTTQGWDPPPLRRPSRARRRQWMREAAQAAAQAAVQAAQAAAAQVAQAHVDENEVVDLMADEAGGGVTTLTTLSSVSTTTVLGHATFSACVRSDVMRDGEKEDAASDKENLRRPVVPSTSSRGSAASGDGYHGLRCRETSAMWSFEYDRDGDVTSVRRALFTGGSDPSDSVSGVRGGRKRPLRPPLVSLARTPLCRRRVGGVDAVLEENDVELRAESQDSAVASGPGRIPQPLSGSSGEESATAVEADSTSHDDVHCTCSNDQIITTSIRGLTCDPRMFLRLTHPELCELSISYLLVYVPKEDDFCHKICYAVDMSDESYRLGQGSFGEVWPLDRYRVVKVARKHSETVLTVWMSGLIRTRAAGEQQQPPSLVGTGVHRGLLTATGCCLLHNVTVHRRFHTDMFHHDQWKLACIDSYRRAFCTLADAIKFLNHQCRVCHFDITPMNVLIDVNPHNPSEIVRAALCDYSLSEPYPDYNERCVAVFQETGTARRIPNCSHRLRECYHPAFRPMPLQKLLICDPHARFPVAGLRRYCMSELSALGNVLGFCLMRLLDRRGLDEVRMGTEALLFKHAGAACRALENGKLTHCSDACLLILAAQMSYGACLLGEHGAALVSHTLRFVEAKMSSCRVRAFRRFYHECSQTMLHEYVRKNVERLLATSDGLYLYNAFRRTTSIICEEDLDGDCRQLFPE
- RB stabilization, western blot of lysates 24 hours after infection [2]: Cells infected with the wild-type virus stabilized RB

B2: pUL97 C151G of recombinant virus RC295 (protein)
chain: B1 chain with C151G
- RB accumulation, western blot of lysates 24 hours after infection [2]: The accumulation of RB was reduced in the C151G mutant
- phosphorylation of RB on serine 780, western blot with specific antisera [2]: The phosphorylation of serine 780 was reduced in the K355M and C151G mutants relative to the wild-type virus and resembled levels seen in uninfected cells

B3: recombinant protein consisting of the carboxyl terminus of Rb fused to the maltose binding protein (Cell Signaling Technology) (other)
chain: DQIMMCSMYGICKVKNIDLKFKIIVTAYKDLPHAVQETFKRVLIKEEEYDSIIVFYNSVFMQRLKTNILQYASTRPPTLSPIPHIPRSPYKFPSSPLRIPGGNIYISPLKSPYKISEGLPTPTKMTPRSRILVSIGESFGTSEKFQKINQMVCNSDRVLKRSAEGSNPPKPLKKLRFDIEGSDEADGSKHLPGESKFQQKLAEMTSTRTRMQKQKMNDSMDTSNKEEK
notes: domain: carboxyl terminus; Bought fusion protein; also called recombinant Rb; recombinant Rb protein
- binding result [3]: no binding
- binding result [4]: no binding
